Data as given in PMC3149894 (Journal of molecular biology, 2010).

Target: the molecule itself
Test: SEC-MALS + other: SDS-PAGE

Protein | stoichiometry N
knobΔTAYT protein containing an MA(H)6 tag at the N-terminus (Ad5 fiber knob, TAYT deleted) (domain or fragment, human adenovirus serotype 5, UniProt P11818 387-581, looked up) GAITVGNKNNDKLTLWTTPAPSPNCRLNAEKDAKLTLVLTKCGSQILATVSVLAVKGSLAPISGTVQSAHLIIRFDENGVLLNNSFLDPEYWNFRNGDLTEGNAVGFMPNLSAYPKSHGKTAKSNIVSQVYLNGDKTKPVTLTITLNGTQETGDTTPSAYSMSFSWDWSGHNYINEIFATSSYTFSYIAQE | 3
biotinylated knobΔTAYT protein carrying an N-terminal MRGS(H)6 tag followed by an AviTag (domain or fragment, human adenovirus serotype 5, UniProt P11818 387-581, looked up, biotin (biotinylated in the host by protein biotin ligase from pBirA)) GAITVGNKNNDKLTLWTTPAPSPNCRLNAEKDAKLTLVLTKCGSQILATVSVLAVKGSLAPISGTVQSAHLIIRFDENGVLLNNSFLDPEYWNFRNGDLTEGNAVGFMPNLSAYPKSHGKTAKSNIVSQVYLNGDKTKPVTLTITLNGTQETGDTTPSAYSMSFSWDWSGHNYINEIFATSSYTFSYIAQE | 3
knobΔTAYT version with an N-terminal MA(H)6 tag followed by an AviTag (biotinylated) (domain or fragment, human adenovirus serotype 5, UniProt P11818 387-581, looked up, biotin (biotinylated in the host by protein biotin ligase from pBirA)) GAITVGNKNNDKLTLWTTPAPSPNCRLNAEKDAKLTLVLTKCGSQILATVSVLAVKGSLAPISGTVQSAHLIIRFDENGVLLNNSFLDPEYWNFRNGDLTEGNAVGFMPNLSAYPKSHGKTAKSNIVSQVYLNGDKTKPVTLTITLNGTQETGDTTPSAYSMSFSWDWSGHNYINEIFATSSYTFSYIAQE | 3
